{
  "source": "paper PMC6016250",
  "key": {"[1]": {"molecular_target": "Toll-like receptor 4 on the surface of RAW 264.7 murine macrophages (mouse (endogenous in RAW 264.7)) (UniProt Q9QUK6)", "sequence (Q9QUK6 26-835)": "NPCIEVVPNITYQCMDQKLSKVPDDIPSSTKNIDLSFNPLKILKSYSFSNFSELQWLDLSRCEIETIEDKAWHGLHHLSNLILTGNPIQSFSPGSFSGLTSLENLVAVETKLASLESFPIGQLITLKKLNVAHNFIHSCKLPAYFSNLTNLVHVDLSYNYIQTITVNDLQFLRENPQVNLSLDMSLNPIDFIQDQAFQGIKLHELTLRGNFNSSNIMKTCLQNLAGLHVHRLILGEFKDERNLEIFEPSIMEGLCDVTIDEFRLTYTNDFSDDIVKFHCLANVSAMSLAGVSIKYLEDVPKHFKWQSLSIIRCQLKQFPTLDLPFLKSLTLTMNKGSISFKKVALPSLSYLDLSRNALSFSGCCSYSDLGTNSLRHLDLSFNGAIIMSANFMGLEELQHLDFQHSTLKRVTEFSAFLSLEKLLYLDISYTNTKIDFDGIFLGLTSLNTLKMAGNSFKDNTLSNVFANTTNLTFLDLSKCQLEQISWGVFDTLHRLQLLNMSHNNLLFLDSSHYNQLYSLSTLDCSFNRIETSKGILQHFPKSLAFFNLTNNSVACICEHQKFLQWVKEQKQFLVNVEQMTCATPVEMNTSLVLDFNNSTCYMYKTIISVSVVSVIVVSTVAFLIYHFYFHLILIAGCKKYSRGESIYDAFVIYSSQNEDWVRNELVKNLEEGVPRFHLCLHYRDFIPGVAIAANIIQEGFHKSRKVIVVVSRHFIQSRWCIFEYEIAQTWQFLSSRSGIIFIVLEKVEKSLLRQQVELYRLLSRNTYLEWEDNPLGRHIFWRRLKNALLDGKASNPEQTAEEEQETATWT"}, "[2]": {"molecular_target": "Toll-like receptor 4 on the surface of RAW 264.7 murine macrophages (mouse (endogenous in RAW 264.7)) (UniProt Q9QUK6)", "remark": "listed apart in the source"}, "[3]": {"molecular_target": "Toll-like receptor 4 on the surface of RAW 264.7 murine macrophages (mouse (endogenous in RAW 264.7)) (UniProt Q9QUK6)", "remark": "listed apart in the source"}},
  "data": [
    {"substance": "recombinant Rv0297PGRS (PGRS domain of the Mycobacterium tuberculosis PE_PGRS protein Rv0297) (from UniProt Q6MX50 1-591) (domain or fragment)", "values": [
      {"measurement": "mortality of RAW 264.7 macrophages (alamarBlue assay, 48 h) with 2.5, 5, 10, 20 and 40 µg/ml rRv0297PGRS (12.42% to 36.07%); no significant change in RAW-ΔTLR4 cells", "setting": "[1]", "value": 36.1, "unit": "%"},
      {"measurement": "total percentage of apoptotic RAW 264.7 cells (annexin V/PI staining) with 20 and 40 µg/ml rRv0297PGRS (43.83% and 58.37%)", "setting": "[2]", "value": 58.4, "unit": "%"},
      {"measurement": "fold increase of NO (Griess reagent) in RAW 264.7 cells stimulated with 20 µg/ml rRv0297PGRS for 30 h in contrast to unstimulated cells; unchanged in RAW-ΔTLR4 cells", "setting": "[3]", "value": 2, "unit": "fold"},
      {"measurement": "fold increment of ROS (CellROX green) in RAW 264.7 cells stimulated with rRv0297PGRS for 30 h compared to untreated cells (1.53 and 1.80); unchanged in RAW-ΔTLR4 cells", "setting": "[3]", "value": 1.8, "unit": "fold"}
    ]}
  ]
}
